The chains are these.
B1: ZBED1 (parent)
chain: EQVFSLGDGVSGGFFGIRDSSFL
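Also: lentivirally expressed fusions sorted by FACS into six bins by GFP to DsRed ratio, PSI derived from sequencing read proportions per bin multiplied by bin number.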

Variants of B1 are the subject of this series. Description: protein stability index of a GFP-peptide fusion (GPS, HEK-293T) (PSI 1-6); higher = more stable. The conditions noted are these: c terminus: native.
For EQVFSLGDGVSGGQFGIRDSSFL [F14Q], the protein stability index was determined as 4.45.
As for EQVFSLGDGVSGGRFGIRDSSFL [F14R], the figure is 4; as for EQVFSLGDGVSGGCFGIRDSSFL [F14C], 4.21; as for EQVFSLGDGVSGGNFGIRDSSFL [F14N], 4.62.
As for EQVFSLGDGVSGGSFGIRDSSFL [F14S], the figure is 3.71; as for EQVFSLGDGVSGGGFGIRDSSFL [F14G], 4.44.
For EQVFSLGDGVSGGLFGIRDSSFL [F14L] the value was 3.67.
As for EQVFSLGDGVSGGPFGIRDSSFL [F14P], the protein stability index came to 4.08.
For EQVFSLGDGVSGGEFGIRDSSFL [F14E] the value was 4.11; for EQVFSLGDGVSGGMFGIRDSSFL [F14M], 3.74; for EQVFSLGDGVSGGDFGIRDSSFL [F14D], 4.16.
For EQVFSLGDGVSGGHFGIRDSSFL [F14H] the value was 4.24; for EQVFSLGDGVSGGIFGIRDSSFL [F14I], 3.21.
For EQVFSLGDGVSGGAFGIRDSSFL [F14A] the value was 3.82.
On to EQVFSLGDGVSGGTFGIRDSSFL [F14T], for which the protein stability index amounted to 4.12.
For EQVFSLGDGVSGGKFGIRDSSFL [F14K] the value was 4.3; for EQVFSLGDGVQGGFFGIRDSSFL [S11Q], 3.05; for EQVFSLGDGVGGGFFGIRDSSFL [S11G], 3.26.
Turning to EQVFSLGDGVYGGFFGIRDSSFL [S11Y], the protein stability index stood at 2.17.
On to EQVFSLGDGVKGGFFGIRDSSFL [S11K], for which the protein stability index was 3.11.
For EQVFSLGDGVAGGFFGIRDSSFL [S11A], the protein stability index came to 3.73.
As for EQVFSLGDGVIGGFFGIRDSSFL [S11I], the figure is 2.
Regarding EQVFSLGDGVWGGFFGIRDSSFL [S11W], the protein stability index came to 2.39.
As for EQVFSLGDGVLGGFFGIRDSSFL [S11L], the figure is 3.09; as for EQVFSLGDGVDGGFFGIRDSSFL [S11D], 4.01; as for EQVFSLGDGVMGGFFGIRDSSFL [S11M], 2.81.
As for EQVFSLGDGVHGGFFGIRDSSFL [S11H], the figure is 3.15; as for EQVFSLGDGVPGGFFGIRDSSFL [S11P], 2.76.
For EQVFSLGDGVVGGFFGIRDSSFL [S11V] the value was 2.9.
As to EQVFSLGDGVFGGFFGIRDSSFL [S11F], the protein stability index was 2.35.
On to EQVFSLGDGVCGGFFGIRDSSFL [S11C], for which the protein stability index worked out at 2.48.
As for EQVFSLGDGVTGGFFGIRDSSFL [S11T], the figure is 3.18; as for EQVFSLGDGVEGGFFGIRDSSFL [S11E], 4.02; as for EQVFSLGDGVNGGFFGIRDSSFL [S11N], 3.63.
As for EQVFSLGDGVRGGFFGIRDSSFL [S11R], the figure is 2.89; as for EQVFSLGDGVSGPFFGIRDSSFL [G13P], 3.49; as for EQVFSLGDGVSGQFFGIRDSSFL [G13Q], 3.48.
For EQVFSLGDGVSGDFFGIRDSSFL [G13D] the value was 3.73; for EQVFSLGDGVSGTFFGIRDSSFL [G13T], 3.17; for EQVFSLGDGVSGRFFGIRDSSFL [G13R], 2.96.
EQVFSLGDGVSGMFFGIRDSSFL [G13M]: the protein stability index is 2.2.
On to EQVFSLGDGVSGKFFGIRDSSFL [G13K], for which the protein stability index turned out to be 3.08.
As for EQVFSLGDGVSGLFFGIRDSSFL [G13L], the figure is 2.23; as for EQVFSLGDGVSGSFFGIRDSSFL [G13S], 3.49; as for EQVFSLGDGVSGIFFGIRDSSFL [G13I], 1.99.
As for EQVFSLGDGVSGWFFGIRDSSFL [G13W], the figure is 1.82; as for EQVFSLGDGVSGCFFGIRDSSFL [G13C], 3.08.
For EQVFSLGDGVSGFFFGIRDSSFL [G13F] the value was 1.98.
For EQVFSLGDGVSGVFFGIRDSSFL [G13V], the protein stability index is 2.22.
For EQVFSLGDGVSGAFFGIRDSSFL [G13A] the value was 3.28; for EQVFSLGDGVSGHFFGIRDSSFL [G13H], 3.41; for EQVFSLGDGVSGNFFGIRDSSFL [G13N], 3.58.
As for EQVFSLGDGVSGEFFGIRDSSFL [G13E], the figure is 4.08; as for EQVFSLGDGVSGYFFGIRDSSFL [G13Y], 2.04; as for EQVFSLGDGVSDGFFGIRDSSFL [G12D], 4.06.
Take EQVFSLGDGVSQGFFGIRDSSFL [G12Q]: the protein stability index is 3.52.
For EQVFSLGDGVSFGFFGIRDSSFL [G12F] the value was 2.01; for EQVFSLGDGVSLGFFGIRDSSFL [G12L], 2.3.
In the case of EQVFSLGDGVSPGFFGIRDSSFL [G12P], the protein stability index was found to be 3.5.
As for EQVFSLGDGVSYGFFGIRDSSFL [G12Y], the figure is 2.05.
For EQVFSLGDGVSVGFFGIRDSSFL [G12V] the value was 2.45; for EQVFSLGDGVSHGFFGIRDSSFL [G12H], 3.01.
As for EQVFSLGDGVSIGFFGIRDSSFL [G12I], the figure is 1.42; as for EQVFSLGDGVSCGFFGIRDSSFL [G12C], 2.49.
As for EQVFSLGDGVSNGFFGIRDSSFL [G12N], the protein stability index worked out at 3.6.
As for EQVFSLGDGVSSGFFGIRDSSFL [G12S], the figure is 3.55; as for EQVFSLGDGVSMGFFGIRDSSFL [G12M], 2.88.
As for EQVFSLGDGVSEGFFGIRDSSFL [G12E], the protein stability index is 4.06.
For EQVFSLGDGVSWGFFGIRDSSFL [G12W], the protein stability index turned out to be 1.72.
For EQVFSLGDGVSKGFFGIRDSSFL [G12K] the value was 3.52; for EQVFSLGDGVSAGFFGIRDSSFL [G12A], 3.41.
For EQVFSLGDGVSTGFFGIRDSSFL [G12T] the value was 3.28.
For EQVFSLGDGVSRGFFGIRDSSFL [G12R] the value was 2.92.
With EQVFSLGDGISGGFFGIRDSSFL [V10I], the protein stability index stood at 2.92.
For EQVFSLGDGRSGGFFGIRDSSFL [V10R] the value was 4.32; for EQVFSLGDGESGGFFGIRDSSFL [V10E], 3.62; for EQVFSLGDGWSGGFFGIRDSSFL [V10W], 2.61.
For EQVFSLGDGLSGGFFGIRDSSFL [V10L] the value was 3; for EQVFSLGDGASGGFFGIRDSSFL [V10A], 3.87; for EQVFSLGDGPSGGFFGIRDSSFL [V10P], 3.86.
As for EQVFSLGDGYSGGFFGIRDSSFL [V10Y], the figure is 3.38; as for EQVFSLGDGTSGGFFGIRDSSFL [V10T], 3.78.
Turning to EQVFSLGDGSSGGFFGIRDSSFL [V10S], the protein stability index stood at 4.03.
On to EQVFSLGDGDSGGFFGIRDSSFL [V10D], for which the protein stability index is 3.78.
For EQVFSLGDGFSGGFFGIRDSSFL [V10F] the value was 2.75.
As for EQVFSLGDGHSGGFFGIRDSSFL [V10H], the figure is 3.55.
As for EQVFSLGDGKSGGFFGIRDSSFL [V10K], the figure is 3.6.
With EQVFSLGDGGSGGFFGIRDSSFL [V10G], the protein stability index stood at 3.89.
As for EQVFSLGDGMSGGFFGIRDSSFL [V10M], the figure is 2.57; as for EQVFSLGDGCSGGFFGIRDSSFL [V10C], 3.35.
As for EQVFSLGDGNSGGFFGIRDSSFL [V10N], the figure is 3.8.
As for EQVFSLGDGQSGGFFGIRDSSFL [V10Q], the figure is 3.92; as for EQVFSLGDYVSGGFFGIRDSSFL [G9Y], 2.51; as for EQVFSLGDWVSGGFFGIRDSSFL [G9W], 1.51.
As to EQVFSLGDVVSGGFFGIRDSSFL [G9V], the protein stability index came to 3.09.
As for EQVFSLGDTVSGGFFGIRDSSFL [G9T], the figure is 3.1; as for EQVFSLGDSVSGGFFGIRDSSFL [G9S], 3.27.
